Experimental data taken from the supplement of paper PMC12042874.
± gives the uncertainty stated by the source.

Assay: amyloid nucleation score (Sup35N fusion, yeast selection) (log enrichment); library NNK2; higher = more nucleation; inactive = no reads after selection
Outline: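 Output and input plasmid inserts were sequenced by Illumina after psi-negative yeast carrying Sup35N fused to peptides of 20 random codons had been induced 24 hours with 100 μM copper sulfate and grown 7 days at 30°C on medium lacking adenine and uracil. The nucleation score is the DiMSum log enrichment of output over input reads, centred on the mode score of non-aggregating sequences. Sequences with under 100 input reads were excluded.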

| Substance | amyloid nucleation score |
| --- | --- |
| RVVCLLKGRWFALVLPDYCR | 0.479 ± 0.8 |
| SVLVVPVT | 0.182 ± 0.79 |
| SFNFEVEWRRASNLSFRWGR | 0.039 ± 0.61 |
| VDFTCLYSVNFRIHVYISDM | 2.71 ± 0.2 |
| MTIVCRWR | 3.04 ± 0.16 |
| LCRYARCLIVSFVRIFGCCL | -0.47 ± 1.1 |
| PCTRS | 0.414 ± 0.31 |
| CMDYHICHIM | 3.89 ± 0.11 |
| PWVSILLVPMYQRHLTPHPE | -0.121 ± 1.1 |
| AGRLLGNVGNWRANEGAGGD | -0.833 ± 1.1 |
| CGKCWCEVD | 0.359 ± 0.37 |
| SNSRKMCDMGKDDNGYKGTH | -0.483 ± 1 |
| ESTWSFNSLYIDLIKVWSDV | -0.889 ± 0.76 |
| RPPSIYC | -0.477 ± 0.49 |
| MFTVRWASFCVVINSSY | 2.91 ± 0.069 |
| FNRGKVMCVAYNGCSRYLMD | -1.64 ± 0.75 |
| GLGVSTKRLYFTMMADCFNG | 0.131 ± 0.49 |
| SREYHSCKCQMLYMSQWSKG | -0.787 ± 0.55 |
| HVFFHFRDVTSGL | 4.64 ± 0.065 |
| CHISLTKWCRFRVV | -0.014 ± 0.76 |
| FFGRGSHKAGYYSCTTSLTQ | 1.07 ± 0.16 |
| GDRDVI | 1.31 ± 0.38 |
| LDPCGYVVSSEGMLVIGVPI | 0.209 ± 0.39 |
| VKGHKRESSWNWRSDGNMWA | -0.111 ± 0.61 |
| MRPMIFPCYAMSSVSMLTSR | 0.72 ± 0.27 |

| Substance | amyloid nucleation score |
| --- | --- |
| MFKWHYWVEHNFSTRDNICA | inactive |
| THFPLHV | -0.388 ± 0.37 |
| NDFFIFSQEYPYKRMFLQLL | -1.35 ± 0.53 |
| LYNCVRYSSYLFNVVPCRGG | inactive |
| SSNNMEIIYVFFLCREAQKL | -0.78 ± 1.1 |
| GKGANARLCIRYDITAVEGT | 1.61 ± 0.44 |
| ELSRAGYEWCLGSHTSLVSS | 0.836 ± 0.32 |
| DLQIFTLLFTR | inactive |
| SLYDGRVVRMYSRH | 2.65 ± 0.1 |
| FSGLGDCEVMYVFVNNRLGW | -0.699 ± 1 |
| CSEYLCGVKVLTCWFGRRYS | 0.174 ± 0.4 |
| HNLMCYGWNFLSVSVVDNCD | 6.552 ± 0.05 |
| IGVSNLLCMFTLDPKGIQDG | 8.488 ± 0.056 |
| NEADE | -0.119 ± 0.46 |
| CAPQSGKLGG | 1.01 ± 0.59 |
| AYMVDLYYTVWPGIVLLYM | 0.152 ± 0.44 |
| RPCQGLDTSVRCVLMMRYYR | 4.36 ± 0.046 |
| NNRSGYEYVIEFRLTSAVHF | 2.1 ± 0.13 |
| SIIYISWSVRHHYVKVG | -0.666 ± 0.46 |
| SYFSVKHDRR | -0.228 ± 0.35 |
| CNIAPASKFSIIMPRR | 3.74 ± 0.11 |
| ACVTPTAARNQIPALIYDTS | -0.135 ± 0.63 |
| APFLGRLEVRV | 0.563 ± 0.37 |
| HIGIWGRQTLR | 3.55 ± 0.049 |
| ANWQWPYCCCCLEGIGRNLF | 4.94 ± 0.073 |

| Substance | amyloid nucleation score |
| --- | --- |
| AWWRGPSFFNPSWKCMNDSS | -0.84 ± 0.54 |
| PMCISLHVTTKGAMFNRGCF | 7.18 ± 0.057 |
| CQGVSYHYLTACRNKLCHES | 0.107 ± 0.79 |
| YVIFHSEEMN | inactive |
| GRRLSGILRRDGGANGCHRR | 0.098 ± 0.42 |
| MVMANHRSYRY | 7.663 ± 0.026 |
| QKMRFYWLVMMAV | -0.283 ± 1 |
| KPDCVLTTGFTSSLRFIMKK | -0.007 ± 0.55 |
| LGEIVHLTVDASIRSSDR | 5.13 ± 0.088 |
| HVYYTVNLVLVNLYPLYFFT | 5.855 ± 0.041 |
| WSTAFSKLNSSRKSD | -0.582 ± 0.76 |
| CNPASYMSALVGGSVSRDSR | -0.076 ± 0.46 |
| YNDSDFWGRVWSTHAPCKAT | -0.134 ± 1.1 |
| IVRVSEPIEVHVHVNAVYSV | 4.68 ± 0.083 |
| YGGDLYLIFDLLDRVILL | inactive |
| LIQFDTISSLYP | -0.271 ± 0.63 |
| LVMVWFLNLVFCFGDFNSNR | 0.74 ± 0.18 |
| HDVFVTYTTLLITARLMRRP | 1.86 ± 0.27 |
| NTRNDWQS | 2.13 ± 0.15 |
| SYGLRSC | 0.174 ± 0.63 |
| RCFIHRGGLLVVLV | -0.98 ± 0.54 |
| ELNMRAYRKMSKGSYSKNSG | -0.462 ± 0.76 |
| RWMILSFSLAWVSMSFENNM | 0.784 ± 0.18 |
| YRISMTAWSGRLSG | 4.03 ± 0.043 |
| IWPSRSGCVSVASVRI | 0.98 ± 0.33 |

| Substance | amyloid nucleation score |
| --- | --- |
| RYINQ | -0.481 ± 1.1 |
| RRCEGCN | -0.299 ± 1 |
| SKFYLKRKSDISYIYASPWR | 1.94 ± 0.06 |
| YYICDLLHSRCEVKLD | -0.551 ± 0.37 |
| LWQVRIRPQH | 1.37 ± 0.12 |
| YLRCMRSLYSMNLCDAFNAA | inactive |
| PGRLKCGNSRYFWYFDMRHV | inactive |
| WHNYSYSRGIRRCHQMKHKR | 1.46 ± 0.15 |
| LEQKVIIRCCPN | 0.091 ± 0.18 |
| IRFVESSQMKVLPRGGVGLN | inactive |
| TVSLYIDYPSVLGFPWSY | -0.952 ± 0.55 |
| RYMKAG | -0.558 ± 0.54 |
| STRCCTRYVCRTAV | -0.158 ± 0.34 |
| KYMINAYTAGWIGV | -1.41 ± 0.34 |
| SFPRRMPSD | 2.38 ± 0.071 |
| IDERATSEDSSGRKDSVTFL | -0.306 ± 0.28 |
| DALGSYWMTAMTF | 0.371 ± 0.44 |
| FLLNIDTFSLMRSVTANTLV | -0.697 ± 0.48 |
| CYKWLAYY | -1.44 ± 0.75 |
| AGPDSVQCRCSLKSSEGSCG | 6.776 ± 0.066 |
| ISSSSKVD | -0.706 ± 0.29 |
| TRCKHDDVW | 1.5 ± 0.33 |
| VTIGLNDFLTWDRWFYVFYG | -0.873 ± 0.25 |
| MFGTMWAWFSVYACEVAWN | 0.045 ± 0.62 |
| SFRTLVP | -0.905 ± 0.63 |

| Substance | amyloid nucleation score |
| --- | --- |
| CKSSARLIDYTS | -0.682 ± 0.45 |
| RQALVRILFSSSRIGGM | -0.857 ± 0.44 |
| SHSVKVMFNGLRVRL | -0.216 ± 0.63 |
| SLCLGHYFHGTAYNWVVLYI | 0.213 ± 0.8 |
| NLKIMLIRTIVYHDWSTMHL | 7.161 ± 0.061 |
| LCDTVTYWVPLC | 4.28 ± 0.094 |
| YRRCSRGNPGCDLAGFGRVV | -0.08 ± 0.74 |
| YVNDIRSKNPALEHEGDL | -0.58 ± 0.55 |
| HASWIGISLS | -0.395 ± 0.74 |
| DRVLRVDSLSAVAVNNLVVR | -0.178 ± 1.1 |
| VGTSWLFLMV | inactive |
| YMVEV | 0.171 ± 0.34 |
| QLESKRWWDIGWCSYLAGGW | 4.92 ± 0.068 |
| IPLRHVLLVMQCRPAL | 0.915 ± 0.23 |
| LLCNWSPTLRHYFMRWDLGC | -0.901 ± 0.36 |
| IRRTPHLISFLRKLCEYWIE | inactive |
| LRVMYHFNQCQFSYLRDFGR | 8.38 ± 0.063 |
| FTVMFLLKMISFKGALHLRL | -0.764 ± 0.65 |
| LSSFDSF | inactive |
| NLGDVSYTSSFG | 1.31 ± 0.43 |
| SGVAPVIMYCAIVCGGLHM | 8.517 ± 0.067 |
| CHLLSRSCKFYGD | -0.898 ± 1.1 |
| NIRSYPVNYKHHFT | 0.19 ± 0.27 |
| ICIFSSCERSMGHRRC | 0.141 ± 0.38 |
| DWWERGRVGSGCQSLGVTLH | 0.923 ± 0.81 |

| Substance | amyloid nucleation score |
| --- | --- |
| LRSPWLF | -0.687 ± 0.79 |
| MLVVLWQSARRSVTIIKVRT | 0.546 ± 0.5 |
| DYCMFFGVTRISSLH | 3.95 ± 0.073 |
| VSMEKVRSDGMDRFASGFAA | 0.361 ± 0.29 |
| QLPSR | -0.243 ± 0.31 |
| PVFCTLYHAAWSHRIRISVF | -1.57 ± 0.54 |
| SRGVS | -0.433 ± 0.43 |
| IISTIT | 1.49 ± 0.14 |
| VVYSSRLRSDA | 1.12 ± 0.4 |
| PREFGRLL | -0.757 ± 0.35 |
| YCWMRRMKSLPGNMYVLAT | 0.25 ± 0.8 |
| SDMYM | -0.324 ± 1.1 |
| TLMFVKNFDVRCEWEASFTM | 5.37 ± 0.077 |
| GRTSDFKLWIGVCLLGSSYV | 1.89 ± 0.2 |
| TRRCIERNRNVLFFTFMCRL | 1.41 ± 0.27 |
| KRNVRFVGMITKRMSRSRPI | 0.511 ± 0.43 |
| LFCVDNVVKKGTVP | -0.365 ± 0.76 |
| YYFNVLFSCYEEWFMFSSTS | inactive |
| SVVVDIKGVDWVVRVLVGKR | -0.484 ± 0.65 |
| YSVIRS | -0.171 ± 0.34 |
| LFLLFFRFFQMGDLHYIIAI | -0.661 ± 1.1 |
| LESMFNVL | -0.44 ± 0.56 |
| KRGKPK | inactive |
| PYSTTNGHSGVWLRWLKGPC | 0.569 ± 0.27 |
| CITSSSLCSDPYLCLSAKNL | inactive |

| Substance | amyloid nucleation score |
| --- | --- |
| WFRYNCHDFSLTNPWRHHNL | 0.507 ± 0.52 |
| IFSISLLMAQYIGVWFFRRV | inactive |
| TVWRARLGSPCGFLCVDRSW | 0.414 ± 0.53 |
| CNSIDMTHKVTLKMSFIFIE | 6.703 ± 0.061 |
| FYKHMLVTATFSLMYITQDD | -0.404 ± 0.48 |
| NSFRISGLVDLVNNLSGYLS | -1.34 ± 0.61 |
| CKGLNMFLLFSHSHSCMLRG | -1.35 ± 0.39 |
| TMYFWLMSLVWLLSVSFRAW | 2.54 ± 0.1 |
| NYLTQCSRSFNFARVDF | -0.003 ± 0.56 |
| TRVNNGSTVHNKMLTS | 0.634 ± 0.74 |
| GKRYCWSLAVNRGFTDTLGV | 0.261 ± 0.46 |
| LCNMHIMRFNM | -1.07 ± 1.1 |
| ARCIQVMVIGISWRVGCMPT | 0.521 ± 0.36 |
| ALSYFTGCRF | 0.766 ± 0.47 |
| MTIDCFTFRDQGVYGTLMLK | 3.33 ± 0.043 |
| LMYCI | -0.211 ± 0.76 |
| WFACYMRIAGTGQEVMYVTM | 0.424 ± 0.24 |
| SICVRKYVKFWVWAMNTLFR | -0.174 ± 0.19 |
| NEIQANNCGPKILKLYQNMR | 0.579 ± 0.8 |
| LVTKSAGLKGGLMRGDRSRK | 0.585 ± 0.37 |
| LEVKARFP | -0.471 ± 0.45 |
| LIPVTGAMGSN | 0.183 ± 0.4 |
| MNGIFVNLKSKIRTFCRSVY | 2.67 ± 0.11 |
| VYNLN | -0.181 ± 0.41 |
| WFCVRVA | -0.13 ± 0.37 |
